We go through one molecule from patent US20090035266A1.

The assay has as its target HLA-A2 molecules on T2 cells (human). The experiment in a line: T2 cell HLA-A2 upregulation assay, flow cytometry, peptide 25 µg/ml; negative control. Particulars: remark: other sources report otherwise.

Molecule HLFGYSWYK [CAP-7 peptide] registered a T2 binding (MFI) of 260 MFI.
